The values that follow are results of earlier work, collected in paper PMC3249237.

The series has as its target LRP6 E1E2 (Homo sapiens) (UniProt O75581).

Chain of DKK1 (O94907 32-266): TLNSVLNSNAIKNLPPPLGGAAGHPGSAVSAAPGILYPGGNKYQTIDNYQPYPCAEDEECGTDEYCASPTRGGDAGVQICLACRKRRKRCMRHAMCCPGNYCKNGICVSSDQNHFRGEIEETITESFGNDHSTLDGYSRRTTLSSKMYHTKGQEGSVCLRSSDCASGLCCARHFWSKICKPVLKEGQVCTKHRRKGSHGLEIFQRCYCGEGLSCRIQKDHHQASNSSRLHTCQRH
Chain of LRP6 E1E2 (Homo sapiens) (O75581 20-630): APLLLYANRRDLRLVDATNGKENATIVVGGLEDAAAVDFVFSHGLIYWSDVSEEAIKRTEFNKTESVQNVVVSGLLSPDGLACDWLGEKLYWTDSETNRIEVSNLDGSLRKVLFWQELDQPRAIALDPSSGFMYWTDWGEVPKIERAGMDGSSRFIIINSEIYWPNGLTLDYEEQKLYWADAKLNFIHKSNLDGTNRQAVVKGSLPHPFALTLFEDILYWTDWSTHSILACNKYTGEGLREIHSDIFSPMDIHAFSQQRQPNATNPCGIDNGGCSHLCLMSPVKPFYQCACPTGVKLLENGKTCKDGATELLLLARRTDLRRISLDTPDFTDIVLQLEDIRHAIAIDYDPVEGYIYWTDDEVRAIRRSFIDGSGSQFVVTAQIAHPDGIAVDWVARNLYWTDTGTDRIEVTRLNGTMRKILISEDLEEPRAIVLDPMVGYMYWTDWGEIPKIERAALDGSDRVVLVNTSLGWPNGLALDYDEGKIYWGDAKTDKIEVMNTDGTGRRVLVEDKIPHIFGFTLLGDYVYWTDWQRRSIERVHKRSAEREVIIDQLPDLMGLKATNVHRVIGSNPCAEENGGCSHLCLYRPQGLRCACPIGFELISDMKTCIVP

As to DKK1 (from UniProt O94907), the Kd was 64 nM.

Usually Kd stands for the concentration at which binding is half-saturated.
